Results taken from doi:10.1101/2021.03.12.434960 (bioRxiv, 2021).

B3: full-length human KIF5C, C-terminal mScarlet-StrepII (natural protein)
chain: MADPAECSIKVMCRFRPLNEAEILRGDKFIPKFKGDETVVIGQGKPYVFDRVLPPNTTQEQVYNACAKQIVKDVLEGYNGTIFAYGQTSSGKTHTMEGKLHDPQLMGIIPRIAHDIFDHIYSMDENLEFHIKVSYFEIYLDKIRDLLDVSKTNLAVHEDKNRVPYVKGCTERFVSSPEEVMDVIDEGKANRHVAVTNMNEHSSRSHSIFLINIKQENVETEKKLSGKLYLVDLAGSEKVSKTGAEGAVLDEAKNINKSLSALGNVISALAEGTKTHVPYRDSKMTRILQDSLGGNCRTTIVICCSPSVFNEAETKSTLMFGQRAKTIKNTVSVNLELTAEEWKKKYEKEKEKNKTLKNVIQHLEMELNRWRNGEAVPEDEQISAKDQKNLEPCDNTPIIDNIAPVVAGISTEEKEKYDEEISSLYRQLDDKDDEINQQSQLAEKLKQQMLDQDELLASTRRDYEKIQEELTRLQIENEAAKDEVKEVLQALEELAVNYDQKSQEVEDKTRANEQLTDELAQKTTTLTTTQRELSQLQELSNHQKKRATEILNLLLKDLGEIGGIIGTNDVKTLADVNGVIEEEFTMARLYISKMKSEVKSLVNRSKQLESAQMDSNRKMNASERELAACQLLISQHEAKIKSLTDYMQNMEQKRRQLEESQDSLSEELAKLRAQEKMHEVSFQDKEKEHLTRLQDAEEMKKALEQQMESHREAHQKQLSRLRDEIEEKQKIIDEIRDLNQKLQLEQEKLSSDYNKLKIEDQEREMKLEKLLLLNDKREQAREDLKGLEETVSRELQTLHNLRKLFVQDLTTRVKKSVELDNDDGGGSAAQKQKISFLENNLEQLTKVHKQLVRDNADLRCELPKLEKRLRATAERVKALESALKEAKENAMRDRKRYQQEVDRIKEAVRAKNMARRAHSAQIAKPIRPGHYPASSPTAVHAIRGGGGSSSNSTHYQK

Legend:
[1] = target: T1, full-length human KIF5B, C-terminal mScarlet-StrepII (human, UniProt P33176 1-963)
T1 sequence: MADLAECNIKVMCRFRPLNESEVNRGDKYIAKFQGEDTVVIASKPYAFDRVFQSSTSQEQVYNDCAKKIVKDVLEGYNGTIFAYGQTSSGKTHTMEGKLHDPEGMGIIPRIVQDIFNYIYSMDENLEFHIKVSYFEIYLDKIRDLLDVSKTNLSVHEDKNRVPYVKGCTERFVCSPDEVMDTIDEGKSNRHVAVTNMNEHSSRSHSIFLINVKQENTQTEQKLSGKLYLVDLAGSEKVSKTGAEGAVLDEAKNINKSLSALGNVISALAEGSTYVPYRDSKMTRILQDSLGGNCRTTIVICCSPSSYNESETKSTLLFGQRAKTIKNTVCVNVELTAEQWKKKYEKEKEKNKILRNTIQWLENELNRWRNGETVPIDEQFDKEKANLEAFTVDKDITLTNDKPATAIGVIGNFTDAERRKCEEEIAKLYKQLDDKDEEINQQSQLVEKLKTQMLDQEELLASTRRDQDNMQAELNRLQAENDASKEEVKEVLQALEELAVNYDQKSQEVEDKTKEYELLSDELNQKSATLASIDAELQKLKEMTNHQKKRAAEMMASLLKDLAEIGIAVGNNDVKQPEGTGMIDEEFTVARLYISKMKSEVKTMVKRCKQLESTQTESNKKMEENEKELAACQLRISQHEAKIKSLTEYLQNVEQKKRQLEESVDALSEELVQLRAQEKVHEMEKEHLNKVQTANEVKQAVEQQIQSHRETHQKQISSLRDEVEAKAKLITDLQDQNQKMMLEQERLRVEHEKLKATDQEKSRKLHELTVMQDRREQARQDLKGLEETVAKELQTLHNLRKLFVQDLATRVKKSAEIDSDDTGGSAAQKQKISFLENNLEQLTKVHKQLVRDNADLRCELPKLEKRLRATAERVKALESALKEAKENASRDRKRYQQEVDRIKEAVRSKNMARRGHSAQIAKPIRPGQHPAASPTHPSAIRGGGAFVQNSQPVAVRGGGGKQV

[2] = target: T2, full-length human KIF5A, C-terminal mScarlet-StrepII (human, UniProt Q12840 1-1032)
T2 sequence: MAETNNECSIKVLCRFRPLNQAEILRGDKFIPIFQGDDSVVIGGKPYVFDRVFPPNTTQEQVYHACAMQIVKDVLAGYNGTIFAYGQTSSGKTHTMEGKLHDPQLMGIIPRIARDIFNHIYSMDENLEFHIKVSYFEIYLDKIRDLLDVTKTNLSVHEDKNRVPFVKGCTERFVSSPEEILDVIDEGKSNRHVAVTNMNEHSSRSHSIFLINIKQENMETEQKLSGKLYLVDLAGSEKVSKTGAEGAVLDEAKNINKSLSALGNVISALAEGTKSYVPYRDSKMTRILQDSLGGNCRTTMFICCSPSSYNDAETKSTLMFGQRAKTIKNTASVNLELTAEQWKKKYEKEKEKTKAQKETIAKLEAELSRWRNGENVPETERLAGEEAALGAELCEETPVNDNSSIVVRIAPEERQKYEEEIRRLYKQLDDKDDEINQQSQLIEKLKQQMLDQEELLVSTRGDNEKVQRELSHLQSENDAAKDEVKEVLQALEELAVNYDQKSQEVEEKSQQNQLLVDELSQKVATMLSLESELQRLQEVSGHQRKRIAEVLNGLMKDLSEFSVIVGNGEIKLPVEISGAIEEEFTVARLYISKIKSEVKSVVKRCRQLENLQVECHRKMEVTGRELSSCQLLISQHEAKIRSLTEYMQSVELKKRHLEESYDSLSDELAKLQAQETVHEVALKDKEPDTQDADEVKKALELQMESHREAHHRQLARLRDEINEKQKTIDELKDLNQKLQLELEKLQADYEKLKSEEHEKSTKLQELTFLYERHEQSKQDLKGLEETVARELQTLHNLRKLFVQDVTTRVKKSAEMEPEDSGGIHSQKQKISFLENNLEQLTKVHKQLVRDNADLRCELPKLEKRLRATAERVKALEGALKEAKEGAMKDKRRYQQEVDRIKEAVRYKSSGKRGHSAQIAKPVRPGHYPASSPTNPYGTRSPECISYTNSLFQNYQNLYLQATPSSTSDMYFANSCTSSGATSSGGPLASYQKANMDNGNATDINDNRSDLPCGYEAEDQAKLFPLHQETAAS

[3] = target: B3
[4] = target: T3, KIF5B-Δhinge (Δ505-610), C-terminal mScarlet-StrepII (human, UniProt P33176 1-963, Δ505-610); assay: TIRF microscopy on surface-bound microtubules
T3 sequence: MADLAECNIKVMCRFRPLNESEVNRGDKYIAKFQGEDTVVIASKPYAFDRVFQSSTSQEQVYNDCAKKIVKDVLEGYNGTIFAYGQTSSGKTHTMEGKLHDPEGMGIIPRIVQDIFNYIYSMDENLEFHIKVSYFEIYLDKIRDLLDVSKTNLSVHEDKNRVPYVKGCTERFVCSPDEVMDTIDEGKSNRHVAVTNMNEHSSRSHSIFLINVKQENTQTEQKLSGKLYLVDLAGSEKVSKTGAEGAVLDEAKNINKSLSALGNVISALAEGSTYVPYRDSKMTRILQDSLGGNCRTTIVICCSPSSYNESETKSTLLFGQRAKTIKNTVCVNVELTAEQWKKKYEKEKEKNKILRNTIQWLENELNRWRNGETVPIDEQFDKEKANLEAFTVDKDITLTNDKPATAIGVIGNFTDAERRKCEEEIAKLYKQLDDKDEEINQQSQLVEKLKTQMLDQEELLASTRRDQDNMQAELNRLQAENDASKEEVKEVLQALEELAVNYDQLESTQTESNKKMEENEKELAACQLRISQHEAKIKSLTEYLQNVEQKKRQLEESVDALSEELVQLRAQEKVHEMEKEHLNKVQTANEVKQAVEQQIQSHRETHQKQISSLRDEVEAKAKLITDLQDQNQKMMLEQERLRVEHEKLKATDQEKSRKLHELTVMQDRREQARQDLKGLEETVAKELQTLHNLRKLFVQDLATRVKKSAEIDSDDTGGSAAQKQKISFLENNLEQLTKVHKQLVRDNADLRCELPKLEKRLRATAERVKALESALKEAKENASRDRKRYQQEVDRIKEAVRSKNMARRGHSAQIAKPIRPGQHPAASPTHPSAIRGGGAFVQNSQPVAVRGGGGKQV

SEC-MALS = target: the molecule itself; assay: SEC-MALS

B1: human KLC1 with N-terminal 6xHis-FLAG (co-expressed with KIF5) (natural protein)
chain: MYDNMSTMVYIKEDKLEKLTQDEIISKTKQVIQGLEALKNEHNSILQSLLETLKCLKKDDESNLVEEKSNMIRKSLEMLELGLSEAQVMMALSNHLNAVESEKQKLRAQVRRLCQENQWLRDELANTQQKLQKSEQSVAQLEEEKKHLEFMNQLKKYDDDISPSEDKDTDSTKEPLDDLFPNDEDDPGQGIQQQHSSAAAAAQQGGYEIPARLRTLHNLVIQYASQGRYEVAVPLCKQALEDLEKTSGHDHPDVATMLNILALVYRDQNKYKDAANLLNDALAIREKTLGKDHPAVAATLNNLAVLYGKRGKYKEAEPLCKRALEIREKVLGKDHPDVAKQLNNLALLCQNQGKYEEVEYYYQRALEIYQTKLGPDDPNVAKTKNNLASCYLKQGKFKQAETLYKEILTRAHEREFGSVDDENKPIWMHAEEREECKGKQKDGTSFGEYGGWYKACKVDSPTVTTTLKNLGALYRRQGKFEAAETLEEAAMRSRKQGLDNVHKQRVAEVLNDPENMEKRRSRESLNVDVVKYESGPDGGEEVSMSVEWNGGVSGRASFCGKRQQQQWPGRRHR
stoichiometry N [1]: ~0.8 KLC1 per KHC
stoichiometry N [2]: ~0.8 KLC1 per KHC
stoichiometry N [3]: ~0.8 KLC1 per KHC

B2: KLC1-CC (aa 1-200), N-terminal 6xHis-2xStrepII-sfGFP (domain or fragment)
chain: MYDNMSTMVYIKEDKLEKLTQDEIISKTKQVIQGLEALKNEHNSILQSLLETLKCLKKDDESNLVEEKSNMIRKSLEMLELGLSEAQVMMALSNHLNAVESEKQKLRAQVRRLCQENQWLRDELANTQQKLQKSEQSVAQLEEEKKHLEFMNQLKKYDDDISPSEDKDTDSTKEPLDDLFPNDEDDPGQGIQQQHSSAAA
binding result [4]: binds

B3
stoichiometry N (SEC-MALS): 2
